B1: ZmHSL2 protein: corn-derived HSL protein, typically a protein having an amino acid sequence of SEQ ID NO: 20 (protein)
chain: MAVESWTVPTPVKDLAALVDEPPSRFVQREEHRPGSLMLAADMPDPLPIVDLNKLSTADEAAKLRSALQTWGLFLATNHGIDASLMEDLMEASREFFHQPLQERQKYSNLREGTRFQLEGYGSDPVVAQDHILDWNDRLQLKVEPEDERSLAQWPKYPESFRDLLHEYASKTKSMRDRILRAMAKILELDEEEFIKQLGASPQAYARFNYYPPCPRPELVLGIKAHSDGPVLTVLLVDREVGGLQVQRENTWFNVPFVPHTLVINLGDSLEIMSNGIFKSPVHRVVTNAEKERISLAMLYAVERDNVLQPAAGLLDEKRPARYRRITEADFLEGVKEHFSKGIRMIETLKI
modifications: Zea mays
B2: HIS1 protein: rice 2-oxoglutarate-dependent dioxygenase, typically a protein having an amino acid sequence of SEQ ID NO: 2 (protein, listed as Oryza sativa)
chain: MADESWRAPAIVQELAAAGVEEPPSRYLLREKDRSDVKLVAAELPEPLPVVDLSRLDGAEEATKLRVALQNWGFFLLTNHGVEASLMDSVMNLSREFFNQPIERKQKFSNLIDGKNFQIQGYGTDRVVTQDQILDWSDRLHLRVEPKEEQDLAFWPDHPESFRDVLNKYASGTKRIRDDIIQAMAKLLELDEDYFLDRLNEAPAFARFNYYPPCPRPDLVFGIRPHSDGTLLTILLVDKDVSGLQVQRDGKWSNVEATPHTLLINLGDTMEVMCNGIFRSPVHRVVTNAEKERISLAMLYSVNDEKDIEPAAGLLDENRPARYRKVSVEEFRAGIFGKFSRGERYIDSLRI
B3: SbHSL1 protein: sorghum-derived HSL protein, typically a protein having an amino acid sequence of SEQ ID NO: 22 (protein)
chain: MAGESWKVPTPVKDLAALVEEPPSQFVQREEDRPGSLMLAADMPDPLPIVDLDKMSTADEATKLRSALQTWGLFLATNHGIDVSLMEDLMKASREFFNQPLQERQKYSNLREGTRFQLEGYGSDPVIAQDHILDWSDRLQLKVEPEDERNLAQWPKHPESFRDLLHEYATKTKTVMVKILRAMAKTLELDEEDFIDQIGGRPQAYARFNYYPPCPRPELVLGIKAHSDGPLLTVLLVDREVGGLQIQRENKWFNVPSIPHALVINLGDSLEIMSNGIFKSPVHRVVTNAEKERISLAMLYAVQRDNVLEPAPGLLDEKRPAKYRRITEAHFLEGVKEHFSKGMRMIETLKI
modifications: Sorghum bicolor
B4: OsHSL2 protein: rice-derived HSL protein, typically a protein having an amino acid sequence of SEQ ID NO: 6 (protein, listed as Oryza sativa)
chain: MADEPWRLPNIVQELAAGVQEPPSRYLQDLAGGDQLAGAEIPEPIPTIDLGRLSGSDGADEAAKLRSALQNWGLFLVSNHGVETSLIDAVIEAAREFFRQPVEEKKKLSNLIDGKRFQIEGYGNDPVQTKDQILDWSDRLHLKVEPECDRNLAFWPTHPKSFRDILHEYTLKIKTVKNDILLALAKLLELDEDCLLNQFSDRAITTARFNYYSPCPRPDLVLGLKPHSDLCALTVLLTDKEVGGLQVLRDGTWYSVPAVRDYSLLINIGVTLEIMTNGTFRAPLHRVVTNAERERMSVAMFYAVDGEKEIEPVAELLGLKQQSARYRGIKGKDLLIGHYEHFSRGGRVVDSLKI

Assays:
Assay type in all cases: biochemical
[1] = 4-HPPD inhibitor decomposition activity by HPLC, substrate BBC-OH; details: for BBC-OH decomposition activity: cell-free synthesized protein, FeCl2, ascorbic acid, 2-oxoglutarate, 30° C. for 3 hours, HPLC
Text: (§1) Then, the decomposition reaction of a 4-HPPD inhibitor was examined in the presence of divalent iron ions, 2-oxoglutarate, and molecular oxygen in a test tube by a method described later using the HIS1 protein prepared by this cell-free protein synthesis system.
(§2) Here, in commercially-available wheat germ extracts, dithiothreitol (DTT) is used as a reducing agent and a protein synthesizing reaction liquid also contains DTT. It was confirmed in advance by liquid chromatography that under the coexistence of divalent iron ions and ascorbic acid, which is a stabilizer for the divalent iron ions, DTT generated radical compounds and secondarily affected the enzyme reaction of HIS1 proteins. For this reason, in the present Example, an unreported protein synthesizing reaction system using Tris (2-carboxyethyl) phosphine (TCEP) as a reducing agent instead of DTT was newly constructed, with which the synthesis of HIS1 proteins and the like was conducted to examine the 4-HPPD inhibitor decomposition activity of these. The decomposition activity was analyzed on the reaction liquid of the protein and the 4-HPPD inhibitor using a high-performance liquid chromatography (mobile phase; 0.5% acetic acid water:acetonitrile=65:35, flow rate; 1 mL/min, feeding; isocratic, column; CAPCELL PAK ADME S5).
Then, the amounts of the synthesized proteins obtained in Examples 1 to 4 as described above were estimated as described below, followed by the analysis on the 4-HPPD inhibitor decomposition activities.
Cell-free protein synthesis was conducted without adding [^14C]-Leucine Leucine under the same conditions as those in the estimation of the synthesized amount to estimate the protein concentration of this translation reaction liquid from the above-described estimation. Then, 100 μl of the translation reaction liquid was subjected to buffer exchange to a basic translation buffer (30 mM HEPES-KOH (pH=7.8), 100 mM KOAc) by using the illustra MicroSpin G-25 column (manufactured by GE Healthcare). The amounts of the solution before and after the buffer exchange were measured and the estimated protein concentration was corrected.
An enzyme reaction liquid was prepared by mixing 250 mM of HEPES-KOH (pH 7.0) with a mixture liquid, which contained 0.25 mM of FeCl2, 1.5 mM of ascorbic acid, 1.5 mM of 2-oxoglutarate, and 0.75 mM of a substrate, and a translation reaction liquid, which contained a synthesized enzyme protein, in a proportion of 40% and 60%, respectively. After incubation at 30° C. for 3 hours, 100% methanol in the same amount as the enzyme reaction liquid was added and sufficiently mixed, followed by being left to stand for 5 minutes on ice. This was subjected to centrifuge separation (20, 400 g, 20 minutes, 4° C.) and the supernatant was passed through Cosmonice Filter W (0.45 μm) (manufactured by Nacalai Tesque, Inc.) to obtain a sample for high-performance liquid chromatography. The analysis on the substrate and the product before and after the enzyme reaction was conducted by loading a column_Pro C18 (150×4.6 mm I.D.) (manufactured by YMC Co., Ltd.) on a high-performance liquid chromatography device_ELITE LaChrom L-2000 series (manufactured by Hitachi, Ltd.). Elution was conducted at a flow speed of 1 mL/min and a column temperature of 40° C. under solvent conditions of acetonitrile:water (1% acetic acid)=55:45 or 50:50 (BBC-OH), acetonitrile:water (1% acetic acid)=45:55 (Sulcotrione), acetonitrile:water (1% acetic acid)=45:55 (Mesotrione), acetonitrile:water (1% acetic acid)=55:45 or 50:50 (tefryltrone), and acetonitrile:water (1% acetic acid)=55:45 or 50:50 (Tembotrione), respectively, and the compound was detected at an ultraviolet wavelength of 286 nm.
(§3) Note that the 5-point scale of the decomposition activity in each of FIGS. 12 to 17 is based on a relative value of the degree of decrease in a substrate-derived peak area detected by HPLC where the degree of decrease in the HIS1 protein was designated by 5. […]

[2] = 4-HPPD inhibitor decomposition activity by HPLC, substrate tefuryltrione
Text: as §1
as §2, with “S5). […]” for “S5).”
(§4) Cell-free protein synthesis was conducted without adding [^14C]-Leucine Leucine under the same conditions as those in the estimation of the synthesized amount to estimate the protein concentration of this translation reaction liquid from the above-described estimation. […] The amounts of the solution before and after the buffer exchange were measured and the estimated protein concentration was corrected. […]
as §3

[3] = 4-HPPD inhibitor decomposition activity by HPLC, substrate sulcotrione
Text: as §1
as §2, with “S5). […]” for “S5).”
as §4, §3

[4] = cell-free synthesized protein, FeCl2, ascorbic acid, 2-oxoglutarate, 30° C. for 3 hours, HPLC

| Molecule | BBC-OH decomposition activity [1] | modification product of BBC-OH by mass analysis ([1]; mass analysis) | cofactor dependence of the modification of BBC-OH ([1]; not shown) | tefuryltrione decomposition activity [2, 4] | modification product of tefuryltrione by mass analysis ([2]; mass analysis) | sulcotrione decomposition activity [3, 4] | modification product of sulcotrione by mass analysis ([3]; mass analysis) |
| --- | --- | --- | --- | --- | --- | --- | --- |
| B1 | had the decomposition activity, which was less effective than that of the HIS1 protein |  |  |  |  |  |  |
| B2 | high decomposition activity | converted into a product with one oxygen atom added | only in the presence of divalent iron ions and 2-oxoglutarate | high decomposition activity | converted into a product with one oxygen atom added | high decomposition activity | converted into a product with one oxygen atom added |
| B3 | had the decomposition activity, which was less effective than that of the HIS1 protein |  |  |  |  |  |  |
| B4 | only very weak decomposition activity |  |  |  |  |  |  |
